Reference: US20160244802

Assays:
[1] = target: T1, dimethyl-K36 histone H3 peptide (STGGV2mKKPHRY-C)
T1 chain: STGGVKKPHRYC

[2] = target: trimethyl-K36 histone H3 peptide
[3] = target: T2, trimethyl-K9 histone H3 peptide (acetyl-ARTKQTARmeKSTGGKAPRK-biotin)
T2 chain: ARTKQTARKSTGGKAPRK

[4] = target: T3, dimethyl-K9 histone H3 peptide (acetyl-ARTKQTARmeKSTGGKAPRK-biotin)
T3 chain: ARTKQTARKSTGGKAPRK

[5] = target: T4, histone H3 (1-18) peptide, H3K4me3 (Upstate 12-564), P68431
T4 chain: ARTKQTARKSTGGKAPRK

[6] = target: T5, histone H3 (1-18) peptide, H3K4me2 (Upstate 12-460), P68431
T5 chain: ARTKQTARKSTGGKAPRK

[7] = target: T6, histone H3 (1-18) peptide, H3K4me1 (Upstate 12-563), P68431
T6 chain: ARTKQTARKSTGGKAPRK

[8] = target: T7, histone H3 (1-18) peptide, tri-methyl on lysine 9, P68431
T7 chain: ARTKQTARKSTGGKAPRK

[9] = target: T8, histone H3 (1-18) peptide, di-methyl on lysine 9, P68431
T8 chain: ARTKQTARKSTGGKAPRK

B1: recombinant Flag-JHDM1A (FBXL11) (protein)
chain: MEPEEERIRYSQRLRGTMRRRYEDDGISDDEIEGKRTFDLEEKLHTNKYNANFVTFMEGKDFNVEYIQRGGLRDPLIFKNSDGLGIKMPDPDFTVNDVKMCVGSRRMVDVMDVNTQKGIEMTMAQWTRYYETPEEEREKLYNVISLEFSHTRLENMVQRPSTVDFIDWVDNMWPRHLKESQTESTNAILEMQYPKVQKYCLMSVRGCYTDFHVDFGGTSVWYHIHQGGKVFWLIPPTAHNLELYENWLLSGKQGDIFLGDRVSDCQRIELKQGYTFVIPSGWIHAVYTPTDTLVFGGNFLHSFNIPMQLKIYNIEDRTRVPNKFRYPFYYEMCWYVLERYVYCITNRSHLTKEFQKESLSMDLELNGLESGNGDEEAVDREPRRLSSRRSVLTSPVANGVNLDYDGLGKTCRSLPSLKKTLAGDSSSDCSRGSHNGQVWDPQCAPRKDRQVHLTHFELEGLRCLVDKLESLPLHKKCVPTGIEDEDALIADVKILLEELANSDPKLALTGVPIVQWPKRDKLKFPTRPKVRVPTIPITKPHTMKPAPRLTPVRPAAASPIVSGARRRRVRCRKCKACVQGECGVCHYCRDMKKFGGPGRMKQSCVLRQCLAPRLPHSVTCSLCGEVDQNEETQDFEKKLMECCICNEIVHPGCLQMDGEGLLNEELPNCWECPKCYQEDSSEKAQKRKMEESDEEAVQAKVLRPLRSCDEPLTPPPHSPTSMLQLIHDPVSPRGMVTRSSPGAGPSDHHSASRDERFKRRQLLRLQATERTMVREKENNPSGKKELSEVEKAKIRGSYLTVTLQRPTKELHGTSIVPKLQAITASSANLRHSPRVLVQHCPARTPQRGDEEGLGGEEEEEEEEEEEDDSAEEGGAARLNGRGSWAQDGDESWMQREVWMSVFRYLSRRELCECMRVCKTWYKWCCDKRLWTKIDLSRCKAIVPQALSGIIKRQPVSLDLSWTNISKKQLTWLVNRLPGLKDLLLAGCSWSAVSALSTSSCPLLRTLDLRWAVGIKDPQIRDLLTPPADKPGQDNRSKLRNMTDFRLAGLDITDATLRLIIRHMPLLSRLDLSHCSHLTDQSSNLLTAVGSSTRYSLTELNMAGCNKLTDQTLIYLRRIANVTLIDLRGCKQITRKACEHFISDLSINSLYCLSDEKLIQKIS
With B1 the “demethylation of peptide substrate, mass spectrometry” value (“demethylation of peptide substrate” for short) [1] was “revealed the generation of mono- and unmethylated forms of the peptide in a JHDM1A-dependent manner” and the “demethylation of peptide substrate” value [2] was “we did not detect any demethylation when a trimethyl-K36 peptide was subjected to a parallel reaction (data not shown)”.

B2: recombinant Flag-JHDM2A (JmjC domain-containing histone demethylase 2A) (protein)
chain: MVLTLGESWPVLVGRRFLSLSAADGSDGSHDSWDVERVAEWPWLSGTIRAVSHTDVTKKDLKVCVEFDGESWRKRRWIEVYSLLRRAFLVEHNLVLAERKSPEISERIVQWPAITYKPLLDKAGLGSITSVRFLGDQQRVFLSKDLLKPIQDVNSLRLSLTDNQIVSKEFQALIVKHLDESHLLKGDKNLVGSEVKIYSLDPSTQWFSATVINGNPASKTLQVNCEEIPALKIVDPSLIHVEVVHDNLVTCGNSARIGAVKRKSSENNGTLVSKQAKSCSEASPSMCPVQSVPTTVFKEILLGCTAATPPSKDPRQQSTPQAANSPPNLGAKIPQGCHKQSLPEEISSCLNTKSEALRTKPDVCKAGLLSKSSQIGTGDLKILTEPKGSCTQPKTNTDQENRLESVPQALTGLPKECLPTKASSKAELEIANPPELQKHLEHAPSPSDVSNAPEVKAGVNSDSPNNCSGKKVEPSALACRSQNLKESSVKVDNESCCSRSNNKIQNAPSRKSVLTDPAKLKKLQQSGEAFVQDDSCVNIVAQLPKCRECRLDSLRKDKEQQKDSPVFCRFFHFRRLQFNKHGVLRVEGFLTPNKYDNEAIGLWLPLTKNVVGIDLDTAKYILANIGDHFCQMVISEKEAMSTIEPHRQVAWKRAVKGVREMCDVCDTTIFNLHWVCPRCGFGVCVDCYRMKRKNCQQGAAYKTFSWLKCVKSQIHEPENLMPTQIIPGKALYDVGDIVHSVRAKWGIKANCPCSNRQFKLFSKPASKEDLKQTSLAGEKPTLGAVLQQNPSVLEPAAVGGEAASKPAGSMKPACPASTSPLNWLADLTSGNVNKENKEKQPTMPILKNEIKCLPPLPPLSKSSTVLHTFNSTILTPVSNNNSGFLRNLLNSSTGKTENGLKNTPKILDDIFASLVQNKTTSDLSKRPQGLTIKPSILGFDTPHYWLCDNRLLCLQDPNNKSNWNVFRECWKQGQPVMVSGVHHKLNSELWKPESFRKEFGEQEVDLVNCRTNEIITGATVGDFWDGFEDVPNRLKNEKEPMVLKLKDWPPGEDFRDMMPSRFDDLMANIPLPEYTRRDGKLNLASRLPNYFVRPDLGPKMYNAYGLITPEDRKYGTTNLHLDVSDAANVMVYVGIPKGQCEQEEEVLKTIQDGDSDELTIKRFIEGKEKPGALWHIYAAKDTEKIREFLKKVSEEQGQENPADHDPIHDQSWYLDRSLRKRLHQEYGVQGWAIVQFLGDVVFIPAGAPHQVHNLYSCIKVAEDFVSPEHVKHCFWLTQEFRYLSQTHTNHEDKLQVKNVIYHAVKDAVAMLKASESSFGKP
B2 was tested, and the “demethylation of peptide substrate” value [3] was “no demethylation was detected when a trimethyl-K9 peptide, that has the same sequence, was subjected to parallel analysis” and the “demethylation of peptide substrate” value [4] was “demethylation of a dimethyl-K9 peptide depends on the presence of JHDM2A and generated products with masses that correlate with both mono-methyl and unmethylated forms of the peptide”.

B3: recombinant Flag-RBP2 (Retinoblastoma Binding Protein 2, JARID1A) (protein)
chain: MAGVGPGGYAAEFVPPPECPVFEPSWEEFTDPLSFIGRIRPLAEKTGICKIRPPKDWQPPFACEVKSFRFTPRVQRLNELEAMTRVRLDFLDQLAKFWELQGSTLKIPVVERKILDLYALSKIVASKGGFEMVTKEKKWSKVGSRLGYLPGKGTGSLLKSHYERILYPYELFQSGVSLMGVQMPNLDLKEKVEPEVLSTDTQTSPEPGTRMNILPKRTRRVKTQSESGDVSRNTELKKLQIFGAGPKVVGLAMGTKDKEDEVTRRRKVTNRSDAFNMQMRQRKGTLSVNFVDLYVCMFCGRGNNEDKLLLCDGCDDSYHTFCLIPPLPDVPKGDWRCPKCVAEECSKPREAFGFEQAVREYTLQSFGEMADNFKSDYFNMPVHMVPTELVEKEFWRLVSSIEEDVIVEYGADISSKDFGSGFPVKDGRRKILPEEEEYALSGWNLNNMPVLEQSVLAHINVDISGMKVPWLYVGMCFSSFCWHIEDHWSYSINYLHWGEPKTWYGVPSHAAEQLEEVMRELAPELFESQPDLLHQLVTIMNPNVLMEHGVPVYRTNQCAGEFVVTFPRAYHSGFNQGYNFAEAVNFCTADWLPIGRQCVNHYRRLRRHCVFSHEELIFKMAADPECLDVGLAAMVCKELTLMTEEETRLRESVVQMGVLMSEEEVFELVPDDERQCSACRTTCFLSALTCSCNPERLVCLYHPTDLCPCPMQKKCLRYRYPLEDLPSLLYGVKVRAQSYDTWVSRVTEALSANFNHKKDLIELRVMLEDAEDRKYPENDLFRKLRDAVKEAETCASVAQLLLSKKQKHRQSPDSGRTRTKLTVEELKAFVQQLFSLPCVISQARQVKNLLDDVEEFHERAQEAMMDETPDSSKLQMLIDMGSSLYVELPELPRLKQELQQARWLDEVRLTLSDPQQVTLDVMKKLIDSGVGLAPHHAVEKAMAELQELLTVSERWEEKAKVCLQARPRHSVASLESIVNEAKNIPAFLPNVLSLKEALQKAREWTAKVEAIQSGSNYAYLEQLESLSAKGRPIPVRLEALPQVESQVAAARAWRERTGRTFLKKNSSHTLLQVLSPRTDIGVYGSGKNRRKKVKELIEKEKEKDLDLEPLSDLEEGLEETRDTAMVVAVFKEREQKEIEAMHSLRAANLAKMTMVDRIEEVKFCICRKTASGFMLQCELCKDWFHNSCVPLPKSSSQKKGSSWQAKEVKFLCPLCMRSRRPRLETILSLLVSLQKLPVRLPEGEALQCLTERAMSWQDRARQALATDELSSALAKLSVLSQRMVEQAAREKTEKIISAELQKAAANPDLQGHLPSFQQSAFNRVVSSVSSSPRQTMDYDDEETDSDEDIRETYGYDMKDTASVKSSSSLEPNLFCDEEIPIKSEEVVTHMWTAPSFCAEHAYSSASKSCSQGSSTPRKQPRKSPLVPRSLEPPVLELSPGAKAQLEELMMVGDLLEVSLDETQHIWRILQATHPPSEDRFLHIMEDDSMEEKPLKVKGKDSSEKKRKRKLEKVEQLFGEGKQKSKELKKMDKPRKKKLKLGADKSKELNKLAKKLAKEEERKKKKEKAAAAKVELVKESTEKKREKKVLDIPSKYDWSGAEESDDENAVCAAQNCQRPCKDKVDWVQCDGGCDEWFHQVCVGVSPEMAENEDYICINCAKKQGPVSPGPAPPPSFIMSYKLPMEDLKETS
In the case of B3, the “demethylation of peptide substrate” value [5] is reported as 80-90% demethylation of the modified substrate, the “demethylation of peptide substrate” value [6] is reported as 80-90% demethylation of the modified substrate and the “demethylation of peptide substrate” value [7] is reported as “failed to catalyze removal of the mel modification state”.

B4: recombinant Flag-JHDM3A (JMJD2A) (protein)
chain: MASESETLNPSARIMTFYPTMEEFRNFSRYIAYIESQGAHRAGLAKVVPPKEWKPRASYDDIDDLVIPAPIQQLVTGQSGLFTQYNIQKKAMTVREFRKIANSDKYCTPRYSEFEELERKYWKNLTFNPPIYGADVNGTLYEKHVDEWNIGRLRTILDLVEKESGITIEGVNTPYLYFGMWKTSFAWHTEDMDLYSINYLHFGEPKSWYSVPPEHGKRLERLAKGFFPGSAQSCEAFLRHKMTLISPLMLKKYGIPFDKVTQEAGEFMITFPYGYHAGFNHGFNCAESTNFATRRWIEYGKQAVLCSCRKDMVKISMDVFVRKFQPERYKLWKAGKDNTVIDHTLPTPEAAEFLKESELPPRAGNEEECPEEDMEGVEDGEEGDLKTSLAKHRIGTKRHRVCLEIPQEVSQSELFPKEDLSSEQYEMTECPAALAPVRPTHSSVRQVEDGLTFPDYSDSTEVKFEELKNVKLEEEDEEEEQEAAALDLSVNPASVGGRLVFSGSKKKSSSSLGSGSSRDSISSDSETSEPLSCRAQGQTGVLTVHSYAKGDGRVTVGEPCTRKKGSAARSFSERELAEVADEYMFSLEENKKSKGRRQPLSKLPRHHPLVLQECVSDDETSEQLTPEEEAEETEAWAKPLSQLWQNRPPNFEAEKEFNETMAQQAPHCAVCMIFQTYHQVEFGGFNQNCGNASDLAPQKQRTKPLIPEMCFTSTGCSTDINLSTPYLEEDGTSILVSCKKCSVRVHASCYGVPPAKASEDWMCSRCSANALEEDCCLCSLRGGALQRANDDRWVHVSCAVAILEARFVNIAERSPVDVSKIPLPRFKLKCIFCKKRRKRTAGCCVQCSHGRCPTAFHVSCAQAAGVMMQPDDWPFVVFITCFRHKIPNLERAKGALQSITAGQKVISKHKNGRFYQCEVVRLTTETFYEVNFDDGSFSDNLYPEDIVSQDCLQFGPPAEGEVVQVRWTDGQVYGAKFVASHPIQMYQVEFEDGSQLVVKRDDVYTLDEELPKRVKSRLSVASDMRFNEIFTEKEVKQEKKRQRVINSRYREDYIEPALYRAIME
With B4 the “demethylation of peptide substrate” value [8] was “the trimethyl-K9 peptide was converted to a dimethyl-K9 peptide” and the “demethylation of peptide substrate” value [9] was “no demethylation was observed on a di-methyl H3K9 peptide”.
